The target of the assay is X. laevis FcRγ subunit, c-myc-tagged (X. laevis).

For “XFL1.7-HA with its own TM1 region (X. laevis XFL1.7, extracellular plus transmembrane part) (domain or fragment)”, the surface expression of XFL1.7-HA on transiently transfected 293T cells (anti-HA surface staining, flow cytometry), alone against co-transfected with FcRγ was found to be 2 fold.

Values taken from PMC2413239.
